A short description of the data set: self-splicing fitness, log relative to wild type (ln ratio); higher = more splicing; Tetrahymena group I intron in knt gene, E. coli kanamycin selection, DiMSum; sequences stand for … in CUCUCU…GGAGGGAAAAGUUAUCAGGCAUGCACCUGGUAGCUAGUCUUUAAACCAAUAGAUUGCAUCGGUUUAAAAGGCAAGACCGUCAAAUUGCGGGAAAGGGGUCAACAGCCGUUCAGUACCAAGUCUCAGGGGAAACUUUGAGAUGGCCUUGCAAAGGGUAUGGUAAUAAGCUGACGGACAUGGUCCUAACCACGCAGCCAAGUCCUAAGUCAACAGAUCUUCUGUUGAUAUGGAUGCAGUUCACAGACUAAAUGUCGGUCGGGGAAGAUGUAUUCUUCUCAUAAGAUAUAGUCGGACCUCUCCUUAAUGGGAGCUAGCGGAUGAAGUGAUGCAACACUGGAGCCGCUGGGAACUAAUUUGUAUGCGAAAGUAUAUUGAUUAGUUUUGGAGUACUCGUGGUCG
In short, it runs like this: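 Fitness was computed with DiMSum as the error-weighted combination of replicate fold changes, kanamycin versus none, each normalised to wild type. The library randomised all eight intron nucleotides of the P1ex region, with the intron placed in the knt kanamycin-resistance gene on pET-22b(+) in E. coli BL21(DE3). Six replicate transformations were grown overnight at 37°C or 30°C on LB agar with or without 25 μg/mL kanamycin, plus 100 μg/mL carbenicillin, 50 μM IPTG and 0.2% rhamnose. Pooled colonies were amplicon-sequenced on an Illumina HiSeq 2500.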

± gives the uncertainty stated by the source.

For the sequence AAGAAGCAAUAUUACGUAUA, the “self-splicing fitness (ln)” value by setting is: (30 °C) -2.18 ± 0.14; (37 °C) -1.17 ± 0.15. With AAGAAGCAAUAUUACGUCUU, the “self-splicing fitness (ln)” value (30 °C) was -2.83 ± 0.15 and the “self-splicing fitness (ln)” value (37 °C) was -1.63 ± 0.14.

On to AAGAAGCAAUAUUACGUGAA, for which the “self-splicing fitness (ln)” value is -2.16 ± 0.1 (30 °C) and -0.97 ± 0.091 (37 °C). For AAGAAGCAAUAUUACGUGAC the same measures were -3.34 ± 0.15 and -1.67 ± 0.11. For AAGAAGCAAUAUUACGUUAU the same measures were -3.52 ± 0.14 and -1.88 ± 0.15.

Take AAGAAGCAAUAUUACGUUCC: the “self-splicing fitness (ln)” value reads like this: (30 °C) -1.29 ± 0.14; (37 °C) 0.0973 ± 0.19. AAGAAGCAAUAUUACGUUGG: the “self-splicing fitness (ln)” value by setting is: (30 °C) -3.25 ± 0.18; (37 °C) -2.71 ± 0.23. Turning to AAGCAGCAAUAUUACGAAUA, the “self-splicing fitness (ln)” value (30 °C) is -2.44 ± 0.16 and the “self-splicing fitness (ln)” value (37 °C) was -1.21 ± 0.12. AAGCAGCAAUAUUACGAAUC: the “self-splicing fitness (ln)” value was -2.44 ± 0.16 (30 °C) and -2.12 ± 0.2 (37 °C). Turning to AAGCAGCAAUAUUACGACAA, the “self-splicing fitness (ln)” value is -1.06 ± 0.075 (30 °C) and -0.277 ± 0.072 (37 °C). For AAGCAGCAAUAUUACGACAU, in that order: -0.341 ± 0.011 and -0.0663 ± 0.032. AAGCAGCAAUAUUACGACCG: the “self-splicing fitness (ln)” value runs as follows: (30 °C) -1.19 ± 0.099; (37 °C) -0.552 ± 0.15.

In the case of AAGCAGCAAUAUUACGAGAA, the “self-splicing fitness (ln)” value (37 °C) was -1.29 ± 0.33. Turning to AAGCAGCAAUAUUACGAGUC, the “self-splicing fitness (ln)” value was -4.83 ± 0.32 (30 °C) and -1.87 ± 0.18 (37 °C).

Take AAGCAGCAAUAUUACGAGUU: the “self-splicing fitness (ln)” value by setting is: (30 °C) -1.95 ± 0.077; (37 °C) -1.07 ± 0.086.

For the sequence AAGCAGCAAUAUUACGAUAG, the “self-splicing fitness (ln)” value (30 °C) is -3.63 ± 0.2 and the “self-splicing fitness (ln)” value (37 °C) was -1.45 ± 0.15.

AAGCAGCAAUAUUACGCAGA: the “self-splicing fitness (ln)” value runs as follows: (30 °C) -2.16 ± 0.11; (37 °C) -0.306 ± 0.091.

As for AAGCAGCAAUAUUACGCAUG, the “self-splicing fitness (ln)” value is -2.97 ± 0.2 (30 °C) and -2.27 ± 0.2 (37 °C). As to AAGCAGCAAUAUUACGCGUC, the “self-splicing fitness (ln)” value runs as follows: (30 °C) -3.03 ± 0.16; (37 °C) -1.7 ± 0.15. For the sequence AAGCAGCAAUAUUACGGCAG, the “self-splicing fitness (ln)” value runs as follows: (30 °C) -1.31 ± 0.065; (37 °C) -0.525 ± 0.087. Consider AAGCAGCAAUAUUACGGCGG, for which the “self-splicing fitness (ln)” value is, setting by setting: (30 °C) -1.13 ± 0.12; (37 °C) -1.01 ± 0.14. For AAGCAGCAAUAUUACGGGGC, the “self-splicing fitness (ln)” value is -3.15 ± 0.23 (30 °C) and -2.54 ± 0.24 (37 °C). For AAGCAGCAAUAUUACGGGGU the same measures were -3.21 ± 0.13 and -2.56 ± 0.16.

For AAGCAGCAAUAUUACGGGUC, the “self-splicing fitness (ln)” value reads like this: (30 °C) -3.12 ± 0.12; (37 °C) -2.61 ± 0.18. AAGCAGCAAUAUUACGGUCU: the “self-splicing fitness (ln)” value is, setting by setting: (30 °C) -0.0787 ± 0.043; (37 °C) 0.176 ± 0.063.

AAGCAGCAAUAUUACGGUUU: the “self-splicing fitness (ln)” value (30 °C) was -2.78 ± 0.12 and the “self-splicing fitness (ln)” value (37 °C) was -0.354 ± 0.096. For AAGCAGCAAUAUUACGUCGA the same measures were -1.03 ± 0.12 and -0.392 ± 0.11. For AAGCAGCAAUAUUACGUUCA, in that order: -0.676 ± 0.056 and 0.0201 ± 0.064. For AAGCAGCAAUAUUACGUUGA, in that order: -2.89 ± 0.13 and -1.51 ± 0.11. On to AAGGAGCAAUAUUACGAAGA, for which the “self-splicing fitness (ln)” value is, setting by setting: (30 °C) -3.41 ± 0.29; (37 °C) -3.13 ± 0.37. Regarding AAGGAGCAAUAUUACGAAUG, the “self-splicing fitness (ln)” value (30 °C) was -2.39 ± 0.22.

For AAGGAGCAAUAUUACGACUC, the “self-splicing fitness (ln)” value (30 °C) was -1.25 ± 0.15 and the “self-splicing fitness (ln)” value (37 °C) was -0.365 ± 0.17. For AAGGAGCAAUAUUACGAGGU, in that order: -3.6 ± 0.23 and -3.6 ± 0.47. Turning to AAGGAGCAAUAUUACGAUAA, the “self-splicing fitness (ln)” value is, setting by setting: (30 °C) -3.46 ± 0.25; (37 °C) -1.94 ± 0.18. For AAGGAGCAAUAUUACGAUCU the same measures were -0.603 ± 0.085 and -0.731 ± 0.11. As to AAGGAGCAAUAUUACGCGGG, the “self-splicing fitness (ln)” value (30 °C) was -3.76 ± 0.46. AAGGAGCAAUAUUACGCGUU: the “self-splicing fitness (ln)” value is -2.22 ± 0.17 (30 °C) and -2.15 ± 0.23 (37 °C). For AAGGAGCAAUAUUACGCUUU, in that order: -3.83 ± 0.32 and -2.93 ± 0.38. For AAGGAGCAAUAUUACGGCUC, in that order: -4.14 ± 0.37 and -2.77 ± 0.36.

(Values after the supplement of paper PMC7877785.)
